Data published in patent publication US20080292632A1 (US Dept. of Health and Human Services, published 2008).

Key:
Test in all cases: IRTA Fc-fusion
[1] = molecular target: T1, IRTA4 extracellular domain-Fc fusion protein (human, UniProt Q96LA5 20-401)
T1 construct: Whole entry named; also called IRTA4-Fc; IRTA4 (Fc-fusion); not shown: human IgG1 hinge and Fc
T1 sequence: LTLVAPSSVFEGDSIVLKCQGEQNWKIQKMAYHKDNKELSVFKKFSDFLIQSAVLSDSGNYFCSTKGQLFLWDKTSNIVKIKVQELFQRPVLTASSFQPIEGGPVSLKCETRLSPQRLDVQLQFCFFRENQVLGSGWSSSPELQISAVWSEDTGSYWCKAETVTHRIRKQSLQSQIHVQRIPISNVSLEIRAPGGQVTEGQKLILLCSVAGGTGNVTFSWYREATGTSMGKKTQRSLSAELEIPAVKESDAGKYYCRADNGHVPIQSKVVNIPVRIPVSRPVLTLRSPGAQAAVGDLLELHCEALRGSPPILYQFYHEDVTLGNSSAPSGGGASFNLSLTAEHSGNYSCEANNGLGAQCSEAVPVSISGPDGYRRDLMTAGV
Protocol: (§1) Each Fc-fusion protein indicated on the top of the column was captured on ELISA plates using secondary antibody (goat anti-human IgG). After washing, 100 ng/50 μl/well of MAbs were added, followed by HRP-labeled goat anti-mouse IgG and TMBZ substrate. The signals in ELISA were normalized for the amounts of each Fc-fusion protein on the plates using HRP-goat anti-human Fc. The controls are MAbs 9E10 (anti-myc tag, IgG1), BerH2 (anti-CD30, IgG1), T408 (anti-CD30, IgG2a), T420 (anti-CD30, IgG2b) and HRP-goat anti-human Fc (1/2400 dilution). […] Two days after transfection, the cells were harvested and incubated with 200 ng/100 μl of each MAb, followed by PE-conjugated goat anti-mouse IgG F(ab′)2. […] In the positive control panels, the MAbs cross-reactive to other IRTAs were used. They are F26 (anti-IRTA1 and anti-IRTA2, IgG2b), F109 (anti-IRTA3, IgG2b), F47 (anti-IRTA4, IgG2a), and F69 (anti-IRTA5, IgG2a). BerH2 (anti-CD30, IgG1) was also used. “+” indicates more than 1.5-fold than that of the control; “++” indicates more than 10-fold mean fluorescence intensity than that of the negative control.
(§2) ELISA. In a typical indirect ELISA for the screening of hybridomas, microtiter plates (MaxiSorp; Nalge Nunc, Rochester, N.Y.) were coated with 100 ng/50 μl/well of goat anti-human IgG in phosphate buffered saline (PBS) for 2 hours at room temperature. Next, 50 ng/100 μl/well of IRTA2-Fc in blocking buffer (25% DMEM, 5% FBS, 25 mM HEPES, 0.5% bovine serum albumin, 0.1% sodium azide in PBS) was added to each well and incubated for 2 hours at room temperature. After washing with PBS containing 0.05% Tween 20, 50 μl of the hybridoma supernatants were added and incubated for 2 hours at room temperature. After washing, the bound MAbs were detected by a 2-hour incubation with horseradish peroxidase (HRP)-labeled goat anti-mouse IgG (Jackson ImmunoResearch, Grove, Pa.) followed by tetramethylbenzidine (TMB) substrate kit (Pierce, Rockford, Ill.). In some experiments, other IRTA-Fc fusion proteins were used instead of IRTA2-Fc.

[2] = molecular target: T2, IRTA1 extracellular domain-Fc fusion protein (human, UniProt Q96PJ5 20-387)
T2 construct: Whole entry named; also called IRTA1-Fc; IRTA1 (Fc-fusion); not shown: human IgG1 hinge and Fc
T2 sequence: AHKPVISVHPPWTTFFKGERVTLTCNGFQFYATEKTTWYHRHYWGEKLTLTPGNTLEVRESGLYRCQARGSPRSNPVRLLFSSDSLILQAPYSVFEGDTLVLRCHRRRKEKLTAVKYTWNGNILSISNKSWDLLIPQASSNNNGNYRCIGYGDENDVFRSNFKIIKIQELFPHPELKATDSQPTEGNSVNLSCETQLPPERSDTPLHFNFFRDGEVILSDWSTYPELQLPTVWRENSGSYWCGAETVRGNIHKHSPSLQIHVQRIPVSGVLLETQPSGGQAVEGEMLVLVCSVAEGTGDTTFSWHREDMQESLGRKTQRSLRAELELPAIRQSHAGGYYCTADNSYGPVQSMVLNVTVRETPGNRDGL
Protocol: as §1, §2

[3] = molecular target: T3, IRTA5 extracellular domain-Fc fusion protein (human, UniProt Q96LA6 17-307)
T3 construct: Whole entry named; also called IRTA5-Fc; IRTA5 (Fc-fusion); not shown: human IgG1 hinge and Fc
T3 sequence: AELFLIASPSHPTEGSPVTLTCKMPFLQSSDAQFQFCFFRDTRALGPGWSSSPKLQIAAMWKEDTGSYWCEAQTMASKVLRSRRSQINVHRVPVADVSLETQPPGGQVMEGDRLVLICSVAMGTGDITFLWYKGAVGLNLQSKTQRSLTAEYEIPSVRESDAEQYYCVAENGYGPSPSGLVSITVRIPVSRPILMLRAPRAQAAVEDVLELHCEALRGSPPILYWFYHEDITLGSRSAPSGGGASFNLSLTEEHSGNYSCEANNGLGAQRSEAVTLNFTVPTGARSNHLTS
Protocol: as §1, §2

[4] = molecular target: T4, IRTA3 extracellular domain-Fc fusion protein (human, UniProt Q96P31 18-573)
T4 construct: Whole entry named; also called IRTA3-Fc; IRTA3 (Fc-fusion); not shown: human IgG1 hinge and Fc
T4 sequence: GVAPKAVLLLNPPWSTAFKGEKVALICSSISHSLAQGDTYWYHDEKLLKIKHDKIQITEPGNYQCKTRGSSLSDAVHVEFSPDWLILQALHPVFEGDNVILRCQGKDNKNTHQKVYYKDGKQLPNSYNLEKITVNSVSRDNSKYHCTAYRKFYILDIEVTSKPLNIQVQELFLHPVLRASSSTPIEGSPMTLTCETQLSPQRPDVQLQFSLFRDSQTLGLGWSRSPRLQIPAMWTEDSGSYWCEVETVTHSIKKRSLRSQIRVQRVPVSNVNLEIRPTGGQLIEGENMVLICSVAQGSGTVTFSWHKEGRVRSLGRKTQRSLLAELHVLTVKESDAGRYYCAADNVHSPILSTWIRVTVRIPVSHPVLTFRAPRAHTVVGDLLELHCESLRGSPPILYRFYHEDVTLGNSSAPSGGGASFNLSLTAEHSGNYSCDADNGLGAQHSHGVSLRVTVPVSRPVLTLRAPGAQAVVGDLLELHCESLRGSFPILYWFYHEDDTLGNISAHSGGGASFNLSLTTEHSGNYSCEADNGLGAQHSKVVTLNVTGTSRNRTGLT
Protocol: as §1, §2

Measured: binding result

B1: F25 (antibody, IgG2a, V domains shown)
VH: EVQLQQSGPELVKPGTSVKMSCKASGYSFTGYFMNWMMQNHGKSLEWIGRINLYNGDTFYNQKFKDKATLTVDKSSNTVHMEFRSLASEDSAVYYCASSLYYFDYWGQGTTFTVSS
VL: DIVMTQSHKFMSTSVGDRVNITCKASQDVGTNVAWYQQKPGQSPKLLIYWASTRQTGVPDRFTGSGSGTDFTLTISNVQSEDLSDYFCQQYSSYPLTFGAGTKLELKR
notes: mouse hybridoma MAb, IgG2a, kappa; also called MAb F25; biotin-MAb F25
no binding: [1] | [2] | [3] | [4]
